Experimental data from publication PMC4691841.

What was measured:
Test in all cases: ITC
[1] = target: histone H3(1-10) peptide (UniProt P68431)
[2] = target: H3(1-10)R2me2a peptide (UniProt P68431)
[3] = target: H3(1-15)T3ph peptide (UniProt P68431)
[4] = target: H3(1-15)K4me3 peptide (UniProt P68431)

Sequence of UHRF1 PHD finger (PHD_(UHRF1)) (Q96T88 298-367): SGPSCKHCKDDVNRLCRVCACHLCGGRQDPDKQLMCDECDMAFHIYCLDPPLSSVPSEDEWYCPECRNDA

Kd [1] [µM] | Kd [2] [µM] | Kd [3] [µM] | Kd [4] [µM] | Substance
95 |  |  |  | PHD_(UHRF1) D347A mutant (from UniProt Q96T88-2 311-380) (domain or fragment)
47 |  |  |  | PHD_(UHRF1) D350A mutant (from UniProt Q96T88-2 311-380) (domain or fragment)
 | 44.9 | > 500 | 7.3 | UHRF1 PHD finger (PHD_(UHRF1)) (from UniProt Q96T88-2 311-380) (domain or fragment)
